Results taken from patent US20200157236A1 (CELLDEX THERAPEUTICS, published 2020).

B1: Ab384 (antibody, V domains shown)
VH: EVQLVQSGAEVKKPGSSVKLSCKASGYTFTSYWMHWVRQAPGQGLEWIGYIKPSSGYTKYNQKFKDKATLTADKSTSTAYMELSSLRSEDTAVYYCARDYYGSSSWFAYWGQGTLVTVSS
VL: EIVMTQSPAFMSVTVGEKVTITCKASQNVGTNVAWYQQKPDQSPKALIYSASYRYSGVPSRFSGSGSGTDFTLTISSLEAEDAATYYCQQYNSYPYMYTFGQGTKLEIK
notes: humanized
B2: Ab351 (antibody, V domains shown)
VH: QVQLVQSGAEVAKPGTSVKLSCKASGYTFTSYWMHWVKQAPGQGLEWIGYIKPSSGYTKYNQKFKDKVTLTADKSTSTAYMELSSLRSEDTAVYYCARDYYGSSSWFAYWGQGTLVTVSS
VL: EIVMTQSPAFLSVTPGEKVTITCKASQNVGTNVAWYQQKPDQAPKALIYSASYRYSGVPSRFSGSGSGTDFTLTISSLEAEDAATYYCQQYNSYPYMYTFGQGTKLEIK
notes: humanized
B3: Ab353 (antibody, V domains shown)
VH: EVQLVQSGAEVKKPGTSVKLSCKASGYTFTSSAMQWVKQAPGQGLEWIGYIKPSSGYTKYNQKFKDKATLTADKSTSTAYMELSSLRSEDTAVYYCARDYYGSSSWFAYWGQGTLVTVSS
VL: EIVMTQSPAFLSVTPGEKVTITCKASQNVGTNVAWYQQKPDQAPKALIYSASYRYSGVPSRFSGSGSGTDFTLTISSLEAEDAATYYCQQYNSYPYMYTFGQGTKLEIK
notes: humanized
B4: Ab354 (antibody, V domains shown)
VH: EVQLVQSGAEVKKPGTSVKLSCKASGYTFTSYWMHWVRQARGQRLEWIGYIKPSSGYTKYAQKFQERVTLTADKSTSTAYMELSSLRSEDTAVYYCARDYYGSSSWFAYWGQGTLVTVSS
VL: EIVMTQSPAFLSVTPGEKVTITCKASQNVGTNVAWYQQKPDQAPKALIYSASYRYSGVPSRFSGSGSGTDFTLTISSLEAEDAATYYCQQYNSYPYMYTFGQGTKLEIK
notes: humanized
B5: Ab356 (antibody, V domains shown)
VH: EVQLVQSGAEVKKPGASVKLSCKASGYTFTSYWMHWVRQAPGQGLEWIGYIKPSSGYTKYNQKFKDKATLTADKSTSTAYMELRSLRSDDTAVYYCARDYYGSSSWFAYWGQGTLVTVSS
VL: EIVMTQSPAFLSVTPGEKVTITCKASQNVGTNVAWYQQKPDQAPKALIYSASYRYSGVPSRFSGSGSGTDFTLTISSLEAEDAATYYCQQYNSYPYMYTFGQGTKLEIK
notes: humanized
B6: Ab357 (antibody, V domains shown)
VH: EVQLVQSGAEVAKPGASVKLSCKASGYTFTSYWMHWVRQAPGQGLEWIGYIKPSSGYTKYNQKFKDKATLTADKSTSTAYMELRSLRSDDTAVYYCARDYYGSSSWFAYWGQGTLVTVSS
VL: EIVMTQSPAFLSVTPGEKVTITCKASQNVGTNVAWYQQKPDQAPKALIYSASYRYSGVPSRFSGSGSGTDFTLTISSLEAEDAATYYCQQYNSYPYMYTFGQGTKLEIK
notes: humanized
B7: Ab358 (antibody, V domains shown)
VH: EVQLVQSGAEVKKPGASVKLSCKASGYTFTSYWMHWVRQAPGQGLEWIGYIKPSSGYTKYAQKLQGRVTLTADKSTSTAYMELRSLRSDDTAVYYCARDYYGSSSWFAYWGQGTLVTVSS
VL: EIVMTQSPAFLSVTPGEKVTITCKASQNVGTNVAWYQQKPDQAPKALIYSASYRYSGVPSRFSGSGSGTDFTLTISSLEAEDAATYYCQQYNSYPYMYTFGQGTKLEIK
notes: humanized
B8: Ab359 (antibody, V domains shown)
VH: QVQLVQSGAEVAKPGSSVKLSCKASGYTFTSYWMHWVKQAPGQGLEWIGYIKPSSGYTKYNQKFKDKATLTADKSTSTAYMELSSLRSEDTAVYYCARDYYGSSSWFAYWGQGTLVTVSS
VL: EIVMTQSPAFLSVTPGEKVTITCKASQNVGTNVAWYQQKPDQAPKALIYSASYRYSGVPSRFSGSGSGTDFTLTISSLEAEDAATYYCQQYNSYPYMYTFGQGTKLEIK
notes: humanized
B9: Ab360 (antibody, V domains shown)
VH: EVQLVQSGAEVKKPGSSVKLSCKASGYTFTSYWMHWVRQAPGQGLEWIGYIKPSSGYTKYNQKFKDKATLTADKSTSTAYMELSSLRSEDTAVYYCARDYYGSSSWFAYWGQGTLVTVSS
VL: EIVMTQSPAFLSVTPGEKVTITCKASQNVGTNVAWYQQKPDQAPKALIYSASYRYSGVPSRFSGSGSGTDFTLTISSLEAEDAATYYCQQYNSYPYMYTFGQGTKLEIK
notes: humanized
B10: Ab361 (antibody, V domains shown)
VH: EVQLVQSGAEVKKPGSSVKVSCKASGYTFSSYWMHWVRQAPGQGLEWIGYIKPSSGYTKYNQKFKDKATLTADKSTSTAYMELSSLRSEDTAVYYCARDYYGSSSWFAYWGQGTLVTVSS
VL: EIVMTQSPAFLSVTPGEKVTITCKASQNVGTNVAWYQQKPDQAPKALIYSASYRYSGVPSRFSGSGSGTDFTLTISSLEAEDAATYYCQQYNSYPYMYTFGQGTKLEIK
notes: humanized
B11: Ab362 (antibody, V domains shown)
VH: EVQLVQSGAEVKKPGSSVKLSCKASGYTFSSYWMHWVKQAPGQGLEWIGYIKPSSGYTKYAQKFQGRVTLTADKSTSTAYMELSSLRSEDTAVYYCARDYYGSSSWFAYWGQGTLVTVSS
VL: EIVMTQSPAFLSVTPGEKVTITCKASQNVGTNVAWYQQKPDQAPKALIYSASYRYSGVPSRFSGSGSGTDFTLTISSLEAEDAATYYCQQYNSYPYMYTFGQGTKLEIK
notes: humanized
B12: Ab363 (antibody, V domains shown)
VH: QVQLVQSGAEVAKPGTSVKLSCKASGYTFTSYWMHWVKQAPGQGLEWIGYIKPSSGYTKYNQKFKDKVTLTADKSTSTAYMELSSLRSEDTAVYYCARDYYGSSSWFAYWGQGTLVTVSS
VL: DIVMTQSQAFMSVTVGEKVTITCKASQNVGTNVAWYQQKPDQAPKALIYSASYRYSGVPSRFSGSGSGTDFTLTISSLEAEDAATYYCQQYNSYPYMYTFGQGTKLEIK
notes: humanized
B13: Ab364 (antibody, V domains shown)
VH: EVQLVQSGPEVKKPGTSVKLSCKASGYTFTSYWMHWVRQARGQRLEWIGYIKPSSGYTKYNQKFKDRATLTADKSTSTAYMELSSLRSEDTAVYYCARDYYGSSSWFAYWGQGTLVTVSS
VL: DIVMTQSQAFMSVTVGEKVTITCKASQNVGTNVAWYQQKPDQAPKALIYSASYRYSGVPSRFSGSGSGTDFTLTISSLEAEDAATYYCQQYNSYPYMYTFGQGTKLEIK
notes: humanized
B14: Ab365 (antibody, V domains shown)
VH: EVQLVQSGAEVKKPGTSVKLSCKASGYTFTSSAMQWVKQAPGQGLEWIGYIKPSSGYTKYNQKFKDKATLTADKSTSTAYMELSSLRSEDTAVYYCARDYYGSSSWFAYWGQGTLVTVSS
VL: DIVMTQSQAFMSVTVGEKVTITCKASQNVGTNVAWYQQKPDQAPKALIYSASYRYSGVPSRFSGSGSGTDFTLTISSLEAEDAATYYCQQYNSYPYMYTFGQGTKLEIK
notes: humanized
B15: Ab366 (antibody, V domains shown)
VH: EVQLVQSGAEVKKPGTSVKLSCKASGYTFTSYWMHWVRQARGQRLEWIGYIKPSSGYTKYAQKFQERVTLTADKSTSTAYMELSSLRSEDTAVYYCARDYYGSSSWFAYWGQGTLVTVSS
VL: DIVMTQSQAFMSVTVGEKVTITCKASQNVGTNVAWYQQKPDQAPKALIYSASYRYSGVPSRFSGSGSGTDFTLTISSLEAEDAATYYCQQYNSYPYMYTFGQGTKLEIK
notes: humanized
B16: Ab367 (antibody, V domains shown)
VH: QVQLVQSGAEVAKPGASVKLSCKASGYTFTSYWMHWVKQAPGQGLEWIGYIKPSSGYTKYNQKFKDKATLTADKSTSTAYMELRSLRSDDTAVYYCARDYYGSSSWFAYWGQGTLVTVSS
VL: DIVMTQSQAFMSVTVGEKVTITCKASQNVGTNVAWYQQKPDQAPKALIYSASYRYSGVPSRFSGSGSGTDFTLTISSLEAEDAATYYCQQYNSYPYMYTFGQGTKLEIK
notes: humanized
B17: Ab368 (antibody, V domains shown)
VH: EVQLVQSGAEVKKPGASVKLSCKASGYTFTSYWMHWVRQAPGQGLEWIGYIKPSSGYTKYNQKFKDKATLTADKSTSTAYMELRSLRSDDTAVYYCARDYYGSSSWFAYWGQGTLVTVSS
VL: DIVMTQSQAFMSVTVGEKVTITCKASQNVGTNVAWYQQKPDQAPKALIYSASYRYSGVPSRFSGSGSGTDFTLTISSLEAEDAATYYCQQYNSYPYMYTFGQGTKLEIK
notes: humanized
B18: Ab369 (antibody, V domains shown)
VH: EVQLVQSGAEVAKPGASVKLSCKASGYTFTSYWMHWVRQAPGQGLEWIGYIKPSSGYTKYNQKFKDKATLTADKSTSTAYMELRSLRSDDTAVYYCARDYYGSSSWFAYWGQGTLVTVSS
VL: DIVMTQSQAFMSVTVGEKVTITCKASQNVGTNVAWYQQKPDQAPKALIYSASYRYSGVPSRFSGSGSGTDFTLTISSLEAEDAATYYCQQYNSYPYMYTFGQGTKLEIK
notes: humanized
B19: Ab370 (antibody, V domains shown)
VH: EVQLVQSGAEVKKPGASVKLSCKASGYTFTSYWMHWVRQAPGQGLEWIGYIKPSSGYTKYAQKLQGRVTLTADKSTSTAYMELRSLRSDDTAVYYCARDYYGSSSWFAYWGQGTLVTVSS
VL: DIVMTQSQAFMSVTVGEKVTITCKASQNVGTNVAWYQQKPDQAPKALIYSASYRYSGVPSRFSGSGSGTDFTLTISSLEAEDAATYYCQQYNSYPYMYTFGQGTKLEIK
notes: humanized
B20: Ab371 (antibody, V domains shown)
VH: QVQLVQSGAEVAKPGSSVKLSCKASGYTFTSYWMHWVKQAPGQGLEWIGYIKPSSGYTKYNQKFKDKATLTADKSTSTAYMELSSLRSEDTAVYYCARDYYGSSSWFAYWGQGTLVTVSS
VL: DIVMTQSQAFMSVTVGEKVTITCKASQNVGTNVAWYQQKPDQAPKALIYSASYRYSGVPSRFSGSGSGTDFTLTISSLEAEDAATYYCQQYNSYPYMYTFGQGTKLEIK
notes: humanized
B21: Ab372 (antibody, V domains shown)
VH: EVQLVQSGAEVKKPGSSVKLSCKASGYTFTSYWMHWVRQAPGQGLEWIGYIKPSSGYTKYNQKFKDKATLTADKSTSTAYMELSSLRSEDTAVYYCARDYYGSSSWFAYWGQGTLVTVSS
VL: DIVMTQSQAFMSVTVGEKVTITCKASQNVGTNVAWYQQKPDQAPKALIYSASYRYSGVPSRFSGSGSGTDFTLTISSLEAEDAATYYCQQYNSYPYMYTFGQGTKLEIK
notes: humanized

biological target: T1, purified ALK protein (BLitz, Table 20) (Homo sapiens (Human), UniProt Q9UM73 19-1038, limits assumed); assay: BLI (BLitz), mAb on Protein A tip, purified ALK in solution
T1 construct: also called purified ALK proteins
T1 sequence (Q9UM73 19-1038 limits assumed): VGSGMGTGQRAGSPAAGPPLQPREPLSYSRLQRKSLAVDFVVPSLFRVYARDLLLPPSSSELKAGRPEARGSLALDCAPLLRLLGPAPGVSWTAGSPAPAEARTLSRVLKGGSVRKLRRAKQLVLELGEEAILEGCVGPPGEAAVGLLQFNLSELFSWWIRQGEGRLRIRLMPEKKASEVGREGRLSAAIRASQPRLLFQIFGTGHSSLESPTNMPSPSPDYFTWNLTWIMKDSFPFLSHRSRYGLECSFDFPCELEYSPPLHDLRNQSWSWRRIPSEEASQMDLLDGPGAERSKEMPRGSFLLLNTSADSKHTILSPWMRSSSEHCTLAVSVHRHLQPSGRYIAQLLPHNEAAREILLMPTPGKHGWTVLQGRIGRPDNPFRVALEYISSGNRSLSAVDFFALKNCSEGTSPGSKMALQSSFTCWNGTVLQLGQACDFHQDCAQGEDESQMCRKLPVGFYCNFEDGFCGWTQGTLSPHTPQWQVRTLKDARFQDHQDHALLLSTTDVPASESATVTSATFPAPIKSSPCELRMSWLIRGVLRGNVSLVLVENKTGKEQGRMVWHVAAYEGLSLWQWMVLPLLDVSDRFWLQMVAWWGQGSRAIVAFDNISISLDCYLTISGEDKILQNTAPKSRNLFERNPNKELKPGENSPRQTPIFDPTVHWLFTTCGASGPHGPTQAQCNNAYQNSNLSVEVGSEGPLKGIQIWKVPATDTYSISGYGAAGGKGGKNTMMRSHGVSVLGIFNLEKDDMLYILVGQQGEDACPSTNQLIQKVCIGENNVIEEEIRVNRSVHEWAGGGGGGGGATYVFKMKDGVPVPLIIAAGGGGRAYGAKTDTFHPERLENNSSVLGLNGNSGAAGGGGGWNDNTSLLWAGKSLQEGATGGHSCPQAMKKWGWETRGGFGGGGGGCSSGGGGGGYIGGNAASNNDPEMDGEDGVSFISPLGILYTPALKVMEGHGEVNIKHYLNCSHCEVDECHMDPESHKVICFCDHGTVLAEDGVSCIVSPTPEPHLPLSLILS
Description: Kinetic measurements of the monovalent affinity of the 96 humanized ALK antibody variants (Ab351-Ab446) were collected. Affinity ranking was performed using a BLitz® System (ForteBio, Menlo Park, Calif.). Humanized anti-ALK antibodies were immobilized at 0.5 mg/mL using Protein A tips. Once baseline stability was ensured, purified ALK proteins at 70 μg/mL were added. The resulting kinetic data were fit to a single binding site equation, from which the quoted monovalent KD values were derived.

Binder	Kd
B1	201 nM
B2	120 nM
B3	384 nM
B4	133 nM
B5	128 nM
B6	147 nM
B7	118 nM
B8	100 nM
B9	137 nM
B10	153 nM
B11	149 nM
B12	119 nM
B13	128 nM
B14	1490 nM
B15	219 nM
B16	114 nM
B17	198 nM
B18	210 nM
B19	2530 nM
B20	130 nM
B21	188 nM
